Source: the DeepSol protein solubility set

Assay: soluble on expression in E. coli; label from the status in PepcDB or PDB records

Soluble on expression in E. coli, not soluble:
MGSDKIHHHHHHMSVPQRPHQFVLTLSCPSAAGQVAAVVGLLDRHRCYVDELTVFDDDLSARFFVRCVFHATDDADALRVDALRREFEPIAERFRMQWAIHDVAARPKVLIMVSKLEHCLADLLFRWKMGELKMDIVGIVSNHPDFAPLAAQHGLPFRHFPITADTKAQQEAQWLDVFETSGAELVILARYMQVLSPEASARLANRAINIHHSFLPGFKGAKPYHQAHARGVKLIGATAHFVTDDLDEGPIIEQVVERVDHSYRPEQLLAVGRDVECITLARAVKAFIERRVFLNGDRTVVFQ
TRTEISPGKAPFTIEHNQTVVTIGSCFSDMIGEKLQYYKFDVLANPFGTTFNPISIFQLLTIAIEKKFNPFPASLGEIWYDHQFHSEVSALSAEALHELTNERIAAATKSLARASCLVITLGSAWVYRHVETNTIVNNCHKQSGRYFKKELLSVKHILEDFETVYAKLKELNPSIKIIFTVSPVRHIKDTLQLNSVSKAILLSSVHYMCEQHTDCHYFPSYEIQMDDLRDYRYYAEDLIHPSKQAEKYIWKKLSNWVFSSDLLAALEEWDQLQKLLHHKAF
MTLSGGTIDILKTRSLAKLQGSKEVMKQKLEIPIHGSVTDNIFSEVRDSFRRNFTEGWEKAGAAFCVIHKGKVIVDLWGGYADKECFKEWKEDTISTIFSCTKSVTAICFAILVDRGLLKYSDKVTKYWPEFGQNGKQDITIEMVLSHTAGLPYFPGVKFTEEDLTDNNKLSHMIENLKPVFAPGTRTAYHALTFGWLTDQIFRRVDSQKRTVGQFFKDEIATKHYIDIHIGECSNEENRLARLFKCPATLVSREIAYDRSILKLARYYYNPRGLFAAARRNLSLHGSDFTMFNNSDLRVVGQPAVNGIGSARAMAQLHQLVLDGTLLSKETFDIIKHPRKMTSFDYLIGEPQNKEHGFTYFKSPLNTWQFGHPGVGGQMVRVDVENDLIVAYLTNGMKTAGCEDHVFTFNRLQRKVYECLKRIPKFELPPPEDIVENE
MGSDKIHHHHHHMRIRPDRNRGRSAGINPSGRFEPVSRHVFDDGWSSLEELPPFKTEVQVEKPRTIITRNESPDISFDRSINPYRGCEHGCVYCFARPTHAFMGLSPGLDFETKLFAKPDAARLLDKELSKEGYQPRTIAIGTNTDPYQPIEKQYRIMREILEVLEARGHPVGIVTKSALVTRDIDILSRMAERGLAKVALSVTTLDRMLARTMEPRASTPTKRLEAIRQLSDAGIPTSVMVAPIIPGLTDQEMERILDSAYAAGAREAGYVVLRLPLEVSPIFKDWLLRHYPDRYRHVMSLIRSMRDGKDYDSEWGKRMKGAGPYAWQIGRRFEITAKRLGLNIERRTLRTDQFVAAGKDQEQLMLL
MIKPEYVVKLLSENMKKTRNPLGIKNEKTNNWWKKVEISKEGDWLFFTGMLYQLTPYIEATVKFLEKIENSRLQGLLTLSKAFPVPFSLLKAITPREAREEAETILQKVYFLLAKSVDVFYAPHLDFYSGILLYDFGHDEAFAEHAKFVCKRLESAGIEKIVTPDPHTTYALKVLYPKFTGVEFDVKSYIELLSDAKSLFNEEFVIHDPCYYGRYLELSDRVREVLNCAGVKYRGVRYSGRLTNCCGGPVEALSPKISREIARLRVEELGNSRIITFCPICLANLRRAGGNAVDFSMVVG
MRQRIAVVGGGPAGLAFARVMHRHDRSVTVLERDPAPDARPPGGTLDLHEGLGRLAMDKAGLSAEFEALSRPEGQAMRILDTDGTVLRDWRPDPAERANPEIDRGQLRDLLLGPLDVRWGQGVTKVVPGGRDGVLVHFEDGRQEAFDLVVGADGAWSRTRPAVSPVTPHYTGVTSVETSLDDVDTRHPDLARLVGDGSVAVYGVNRAVVAQRNSGGHVKVHAQFRAPLDWHAHLDLGDAEAVRSRLLTLFDGWTAPVLDLLRHGTGFVHRPLHVLPVSHTWTHVPGVTLLGDAAHLMPPLGAGANLALLEGAELAESLADGSADPDDAVRAFEERMWARAGRWAKITAAGLERLVSPDPAAALAVFDQVQPSRLEHHHHHH
PNGDKVHAWYWQSPRRDAPTVLYLHGARWNLNGSAFRMEGWTRMGYSMLAIDYRGFGQSTPLLPSEQSASQDAAAALQELARRQPDPARRFIYGHSLGGAIAIDLAARPDLPPFAGLIVESSFTSIGAMLGTMKWGWVPGATLLVTQPFASVDKLAALTTPMLLLHGTADRVVPHTMSDELYRAAQQVPADLKRLVKIEGASHSGAIRSGRIYEDAVADFVRDAGRGYAGRQGAPTPLTASRPGT
MKDFNQRFRDLHKLRQRARKENHEQVVEEDRRSKLPKNHEAKKERDQWQVKELQDRKAAEDKGLDYERVRSLEMSADVTEKLEQKRKRKKNPDQGFTSYEDMTLRQHTRLTAALDPDLDSYKKMRECVGGEQFYPTADTLIHGNHYPTTAAMDKLTKDVHGQVKRREQYHRRRLYDPDAPIDYINEKNKKFNKKLDKYYGKYTEDIKDDLERGTAI
MPVAHVALPVPLPRTFDYLLPEGMAVKAGCRVRVPFGKQQERIGVVVSVSDVSELPLNELKAVVEVLDSEPVFTHSVWRLLLWAADYYHHPIGDVLFHALPILLRQGRPAANAPMWYWFATEQGHAVDLNSLKRSPKQQQALAALRQGKIWRDQVATLEFNDAALQALRKKGLCDLASETPEFSDWRTNYAVSGERLRLNTEQATAVGAIHSAADTFSAWLLAGVTGSGKTEVYLSVLENVLAQGKQALVMVPEIGLTPQTIARFRERFNAPVEVLHSGLNDSERLSAWLKAKNGEAAIVIGTRSALFTPFKNLGVIVIDEEHDSSYKQQEGWRYHARDLAVYRAHSEQIPIILGSATPALETLCNVQQKKYRLLRLTRRAGNARPAIQHVLDLKGQKVQAGLAPALITRMRQHLQADNQVILFLNRRGFAPALLCHDCGWIAECPRCDHYYTLHQAQQHLRCHHCDSQRPVPRQCPSCGSTHLVPVGLGTEQLEQTLAPLFPGVPISRIDRDTTSRKGALEQQLAEVHRGGARILIGTQMLAKGHHFPDVTLVALLDVDGALFSADFRSAERFAQLYTQVAGRAGRAGKQGEVVLQTHHPEHPLLQTLLYKGYDAFAEQALAERRMMQLPPWTSHVIVRAEDHNNQHAPLFLQQLRNLILSSPLADDKLWVLGPVPALAPKRGGRWRWQILLQHPSRVRLQHIINGTLALINTIPDSRKVKWVLDVDPIEG
MNVILFDGICNLCNGAVTFVVKRDRKGLFRFVSLQSETGKSLLKRYAVESTNKTLYYFRNNRCYSKSTAILYILKDLGGFWQCLYPLILIPAKLRDAIYLLVSKYRYRIFGKADSCIKPFGFSSEESKRSDLEHHHHHH
MACCYNSPRRLEKSFVLDGVAVSTMAQAYSIMRPKLWSAIPPYNPQLDHHSRRYFRSRVVPPILRKTDQDHGGTGRDGWIVDYFHIFGQGQRYLNRRNWAGAGHSLQQVSGHDYYNSNPKAITTGLNGRFGYRRNTPALRQHTSVFGEVTPFPISEDIASQGLTCVFKTDV
MGSDKIHHHHHHMKFPERFAHLPPYAFPRLRALLDHHAPGGDVVQLTIGEPKHEFPAWVTDVIVENASAFNNYPQNEGSDALRGAMADWAAQRYGVTLDPATRVMALNGTREGLYNAAMALCPEEKNGQRPVVLIPNPFYQVYMIAAISVAAEPVFVPATDETGHLPDYASLPEEVLNRTAIAYICSPANPQGAVASREYWQQLFALAEKYDFKVFADECYSEIYRDTAPVGALTVADEMGLDPERVVLFNSLSKRSNLPGLRCGLLAGGPETLVQVKKLRAYSGAPIPGPLQAAAAKVWADEVHVAENRALYQEKYRIADEVFAGLNGYMSPEAGFFLWLPVEDGEAATLKLWQETGVRVLPGAFLAQGKGAENPGHGYIRVALVASEEQTRASLQLLRDCLY

Soluble on expression in E. coli, soluble:
MSKRILFIVGSFSEGSFNRQLAKKAETIIGDRAQVSYLSYDRVPFFNQDLETSVHPEVAHAREEVQEADAIWIFSPVYNYAIPGPVKNLLDWLSRSLDLSDPTGPSVLQDKIVTVSSVANGASPEEVFEDYRSLLPFIRMHLVDQLTGVPINSEAWSTGILKVSAEKLAELSAQADALLSAIENLEHHHHHH
MSLQQGINKPIFQQAKLFRYQLPFKIPIVFKGIKLTAREGVILQVQNDKGEFNFAEIAPLPGFSKETLQQATAQIIALLNTPPLNSQSDILLYPSVAFALDCILHNIPISELFKTAESIPLLQGDNHSVLKQYLQMNKPNSVKLKIGRQSVAKDITLFSALSALNNNLLIRCDANQSWTFAQADLFFANINTQLIDYIEEPTASLSDNINLAERYEVQLALDETLQQKQFQYQHHRCFKALILKPTLIGSFERLNYFIKTAKKFHLSVSISSSFESPLGLSQLAFMASQWSKEVDISCGLDTLKFFESAILNKNSDKKLDNKTPINQQVKHLECLWTSNEGHHHHHH
SSNNFNYGAYHSLEAIYHEMDNIAADFPDLARRVKIGHSFENRPMYVLKFSTGKGVRRPAVWLNAGIHSREWISQATAIWTARKIVSDYQRDPAITSILEKMDIFLLPVANPDGYVYTQTQNRLWRKTRSRNPGSSCIGADPNRNWNASFAGKGASDNPCSEVYHGPHANSEVEVKSVVDFIQKHGNFKGFIDLHSYSQLLMYPYGYSVKKAPDAEELDKVARLAAKALASVSGTEYQVGPTCTTVYPASGSSIDWAYDNGIKFAFTFELRDTGTYGFLLPANQIIPTAEETWLGLKTIMEHVRDNLY
MHHHHHHSSGRENLYFQGPPARVRVAVRLRPFVDGTAGASDPPCVRGMDSCSLEIANWRNHQETLKYQFDAFYGERSTQQDIYAGSVQPILRHLLEGQNASVLAYGPTGAGKTHTMLGSPEQPGVIPRALMDLLQLTREEGAEGRPWALSVTMSYLEIYQEKVLDLLDPASGDLVIREDCRGNILIPGLSQKPISSFADFERHFLPASRNRTVGATRLNQRSSRSHAVLLVKVDQRERLAPFRQREGKLYLIDLAGSEDNRRTGNKGLRLKESGAINTSLFVLGKVVDALNQGLPRVPYRDSKLTRLLQDSLGGSAHSILIANIAPERRFYLDTVSALNFAARSKEVINRPFTNESLQPHALGPVKLSQKELLGPPEAK
MKTGKELKPGTVLRIDNDPWLVQKAEFTKSGRNSAIMKTKLKNLLTGYKTETVYGADDKLDDVILDRKEATLSFINGDEYTFMDTTDYTMYELNAEDIEAVLPYIEEGMEDVCEAVFFEGRLVSVELPTTISRKVVYTENAARGDTSGKVMKPAKLANGTEISVADFIQIDEWIDIDTRDNSFKGRSKKLEHHHHHH
AHHHHHHGSVDWELMKKIIESPGVSGYEHLGIRDLVVDILKDVADEVKIDKLGNVIAHFKGSAPKVMVAAHMDKIGLMVNHIDKDGYLRVVPIGGVLPETLIAQKIRFFTEKGERYGVVGVLPPHLRREAKDQGGKIDWDSIIVDVGASSREEAEEMGFRIGTIGEFAPNFTRLSEHRFATPYLDDRICLYAMIEAARQLGEHEADIYIVASVQEEIGLRGARVASFAIDPEVGIAMDVTFAKQPNDKGKIVPELGKGPVMDVGPNINPKLRQFADEVAKKYEIPLQVEPSPRPTGTDANVMQINREGVATAVLSIPIRYMHSQVELADARDVDNTIKLAKALLEELKPMDFTP
MRLHPRTEAAKESIFPRMSGLAQRLGAVNLGQGFPSNPPPPFLLEAVRRALGRQDQYAPPAGLPALREALAEEFAVEPESVVVTSGATEALYVLLQSLVGPGDEVVVLEPFFDVYLPDAFLAGAKARLVRLDLTPEGFRLDLSALEKALTPRTRALLLNTPMNPTGLVFGERELEAIARLARAHDLFLISDEVYDELYYGERPRRLREFAPERTFTVGSAGKRLEATGYRVGWIVGPKEFMPRLAGMRQWTSFSAPTPLQAGVAEALKLARREGFYEALREGYRRRRDLLAGGLRAMGLRVYVPEGTYFLMAELPGWDAFRLVEEARVALIPASAFYLEDPPKDLFRFAFCKTEEELHLALERLGRVVNSPREAEGGAVSG
